In the Human Domainome abundance scans (Beltran et al. 2025) one finds abundance fitness data, which are given here for 91 substances.

± gives the uncertainty stated by the source.

This series in a line: abundance fitness (aPCA) (normalised: wild type 0, dead -1); higher = more abundant; growth selection in yeast, the domain comes from the species named. Conditions: Homo sapiens.
With “SAFB-like transcription modulator I28N, Q9NWH9”, the abundance fitness is -0.59 ± 0.23. The value for “SAFB-like transcription modulator I28P, Q9NWH9” was 0.193 ± 0.13. Then “SAFB-like transcription modulator I28Q, Q9NWH9”, with -0.36 ± 0.13; and “SAFB-like transcription modulator I28R, Q9NWH9”, with -0.018 ± 0.057. Regarding “SAFB-like transcription modulator I28S, Q9NWH9”, the abundance fitness was -0.411 ± 0.12. The value for “SAFB-like transcription modulator I28T, Q9NWH9” was -0.129 ± 0.12; that for “SAFB-like transcription modulator I28V, Q9NWH9” was 0.01 ± 0.069. Then “SAFB-like transcription modulator I28W, Q9NWH9”, with -0.365 ± 0.11.

Turning to “SAFB-like transcription modulator I28Y, Q9NWH9”, the abundance fitness was -0.306 ± 0.15. “SAFB-like transcription modulator I41A, Q9NWH9”: the abundance fitness was 0.075 ± 0.075. Then “SAFB-like transcription modulator I41C, Q9NWH9”, with -0.08 ± 0.15; and “SAFB-like transcription modulator I41D, Q9NWH9”, with -0.457 ± 0.11.

As for “SAFB-like transcription modulator I41E, Q9NWH9”, the abundance fitness is -0.139 ± 0.083. For the substance “SAFB-like transcription modulator I41F, Q9NWH9”, the abundance fitness is 0.197 ± 0.079. The value for “SAFB-like transcription modulator I41G, Q9NWH9” was -0.158 ± 0.064; that for “SAFB-like transcription modulator I41H, Q9NWH9” was 0.157 ± 0.093; that for “SAFB-like transcription modulator I41K, Q9NWH9” was -0.336 ± 0.11. The value for “SAFB-like transcription modulator I41L, Q9NWH9” was -0.087 ± 0.065; that for “SAFB-like transcription modulator I41M, Q9NWH9” was 0.08 ± 0.075.

Take “SAFB-like transcription modulator I41N, Q9NWH9”: the abundance fitness was -0.68 ± 0.2.

As to “SAFB-like transcription modulator I41Q, Q9NWH9”, the abundance fitness is -0.022 ± 0.082. The value for “SAFB-like transcription modulator I41R, Q9NWH9” was -0.202 ± 0.066; that for “SAFB-like transcription modulator I41S, Q9NWH9” was -0.01 ± 0.042; that for “SAFB-like transcription modulator I41T, Q9NWH9” was -0.337 ± 0.079.

Consider “SAFB-like transcription modulator I41V, Q9NWH9”, for which the abundance fitness is -0.067 ± 0.063. Then “SAFB-like transcription modulator I41W, Q9NWH9”, with -0.195 ± 0.092; and “SAFB-like transcription modulator I41Y, Q9NWH9”, with -0.172 ± 0.11. Then “SAFB-like transcription modulator I49A, Q9NWH9”, with 0 ± 0.063; and “SAFB-like transcription modulator I49C, Q9NWH9”, with -0.138 ± 0.056.

On to “SAFB-like transcription modulator I49D, Q9NWH9”, for which the abundance fitness is -0.154 ± 0.11. Then “SAFB-like transcription modulator I49E, Q9NWH9”, with -0.056 ± 0.071; and “SAFB-like transcription modulator I49G, Q9NWH9”, with -0.406 ± 0.049.

As for “SAFB-like transcription modulator I49H, Q9NWH9”, the abundance fitness is -0.29 ± 0.1. The value for “SAFB-like transcription modulator I49K, Q9NWH9” was -0.401 ± 0.078.

As to “SAFB-like transcription modulator I49L, Q9NWH9”, the abundance fitness is -0.075 ± 0.045.

For “SAFB-like transcription modulator I49M, Q9NWH9”, the abundance fitness amounted to 0.03 ± 0.057. The value for “SAFB-like transcription modulator I49N, Q9NWH9” was -0.518 ± 0.073. Then “SAFB-like transcription modulator I49P, Q9NWH9”, with -0.739 ± 0.067; and “SAFB-like transcription modulator I49Q, Q9NWH9”, with -0.068 ± 0.05. Consider “SAFB-like transcription modulator I49R, Q9NWH9”, for which the abundance fitness was -0.148 ± 0.054. The value for “SAFB-like transcription modulator I49S, Q9NWH9” was -0.168 ± 0.05; that for “SAFB-like transcription modulator I49T, Q9NWH9” was -0.223 ± 0.072; that for “SAFB-like transcription modulator I49V, Q9NWH9” was -0.079 ± 0.048. The value for “SAFB-like transcription modulator I49W, Q9NWH9” was -0.449 ± 0.041.

“SAFB-like transcription modulator I49Y, Q9NWH9”: the abundance fitness is -0.076 ± 0.089.

Turning to “SAFB-like transcription modulator I56A, Q9NWH9”, the abundance fitness was -0.829 ± 0.1. Then “SAFB-like transcription modulator I56C, Q9NWH9”, with -0.18 ± 0.083; and “SAFB-like transcription modulator I56D, Q9NWH9”, with -0.286 ± 0.3; and “SAFB-like transcription modulator I56E, Q9NWH9”, with -0.597 ± 0.089. Take “SAFB-like transcription modulator I56F, Q9NWH9”: the abundance fitness is -0.898 ± 0.21. Then “SAFB-like transcription modulator I56G, Q9NWH9”, with -0.916 ± 0.072; and “SAFB-like transcription modulator I56H, Q9NWH9”, with -0.797 ± 0.19; and “SAFB-like transcription modulator I56L, Q9NWH9”, with 0.002 ± 0.068. Then “SAFB-like transcription modulator I56M, Q9NWH9”, with -0.217 ± 0.05. Regarding “SAFB-like transcription modulator I56N, Q9NWH9”, the abundance fitness is -0.951 ± 0.25.

For “SAFB-like transcription modulator I56P, Q9NWH9”, the abundance fitness is -0.457 ± 0.05. As to “SAFB-like transcription modulator I56R, Q9NWH9”, the abundance fitness was -0.485 ± 0.07.

As for “SAFB-like transcription modulator I56S, Q9NWH9”, the abundance fitness is -0.678 ± 0.082.

In the case of “SAFB-like transcription modulator I56W, Q9NWH9”, the abundance fitness was -0.561 ± 0.069. The value for “SAFB-like transcription modulator I56Y, Q9NWH9” was -0.419 ± 0.16; that for “SAFB-like transcription modulator I66A, Q9NWH9” was -0.552 ± 0.15. The value for “SAFB-like transcription modulator I66C, Q9NWH9” was 0.196 ± 0.11.

Take “SAFB-like transcription modulator I66E, Q9NWH9”: the abundance fitness was -0.272 ± 0.061. Then “SAFB-like transcription modulator I66F, Q9NWH9”, with -0.396 ± 0.15; and “SAFB-like transcription modulator I66G, Q9NWH9”, with -0.517 ± 0.085; and “SAFB-like transcription modulator I66H, Q9NWH9”, with -0.226 ± 0.12.

As to “SAFB-like transcription modulator I66L, Q9NWH9”, the abundance fitness was -0.268 ± 0.094. For “SAFB-like transcription modulator I66M, Q9NWH9”, the abundance fitness was -0.316 ± 0.14. As to “SAFB-like transcription modulator I66N, Q9NWH9”, the abundance fitness is -0.432 ± 0.18. The value for “SAFB-like transcription modulator I66P, Q9NWH9” was -0.274 ± 0.1; that for “SAFB-like transcription modulator I66Q, Q9NWH9” was -0.004 ± 0.11; that for “SAFB-like transcription modulator I66R, Q9NWH9” was -0.443 ± 0.061. The value for “SAFB-like transcription modulator I66S, Q9NWH9” was -0.259 ± 0.083; that for “SAFB-like transcription modulator I66T, Q9NWH9” was -0.063 ± 0.12; that for “SAFB-like transcription modulator I66V, Q9NWH9” was -0.036 ± 0.084. Then “SAFB-like transcription modulator I66W, Q9NWH9”, with -0.451 ± 0.18. For “SAFB-like transcription modulator I66Y, Q9NWH9”, the abundance fitness was found to be 0.007 ± 0.16. The value for “SAFB-like transcription modulator K20A, Q9NWH9” was -0.284 ± 0.039; that for “SAFB-like transcription modulator K20C, Q9NWH9” was -0.115 ± 0.043. Then “SAFB-like transcription modulator K20D, Q9NWH9”, with -0.413 ± 0.11.

In the case of “SAFB-like transcription modulator K20E, Q9NWH9”, the abundance fitness was -0.354 ± 0.13. The value for “SAFB-like transcription modulator K20F, Q9NWH9” was -0.366 ± 0.16. The value for “SAFB-like transcription modulator K20G, Q9NWH9” was -0.638 ± 0.082. The value for “SAFB-like transcription modulator K20H, Q9NWH9” was 0.005 ± 0.12. As to “SAFB-like transcription modulator K20I, Q9NWH9”, the abundance fitness is 0.049 ± 0.11. For “SAFB-like transcription modulator K20L, Q9NWH9”, the abundance fitness is -0.21 ± 0.078. On to “SAFB-like transcription modulator K20M, Q9NWH9”, for which the abundance fitness is -0.035 ± 0.075. Then “SAFB-like transcription modulator K20N, Q9NWH9”, with -0.333 ± 0.17; and “SAFB-like transcription modulator K20Q, Q9NWH9”, with -0.193 ± 0.091; and “SAFB-like transcription modulator K20S, Q9NWH9”, with -0.244 ± 0.036.

For the substance “SAFB-like transcription modulator K20T, Q9NWH9”, the abundance fitness is -0.212 ± 0.053.
